Results: the supplement of paper PMC9170038

test system: K4 kissing-loop RNA reporter; test: apparent KD of K4 kissing-loop reporter; higher = weaker reporter binding; conditions: Eterna round: R107; input ligand: none
Procedure: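 RNA-MaP round R107: designed RNA switches with theophylline, tryptophan, arginine or FMN aptamers are transcribed on-chip within common flanks. They are titrated with a labelled K4 kissing-loop RNA reporter in RNA-MaP buffer (100 mM Tris pH 7.5, 80 mM KCl, 4 mM MgCl2), without ligand or with the indicated ligand. Median apparent KD per design.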
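Further: bound reporter read as fluorescence of individual clusters on recovered sequencing chips by microscopy, with normalized cluster intensities fitted with a binding model.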

First: AAGUGAUGUUGUAGUGAUGUUGUGAUGUUGCAGGAUAUAUAGUGAUGUAGAAGGGUAUGUACUUAUUUUUUAUUUGAGUUAUGUU [mmvmmullin]
Second: AAGAGGUAGGCGGCCGCCACUUGUUGUGAACACAUACGAGCCAGUGAUGUUGGUAUUGUGUGCGGAAGGACCGGGCCUACCUGAA [Exclusion - Tryptophan B (Freestyle 21)]
The “apparent KD of K4 kissing-loop reporter” value of the first is 2.4-fold lower: 56.1 nM for the first, 136 nM for the second.

“GGAGUUACCUGGGAUACCAGUCGGAGUCCCAGAGCUCAGAGUGAUGUUCUGGGAUGUUUCGGCCCUUGGCAGCUCUGGGACUCCC [#2 Exclusion - Theophylline B Attempt #12 (HarryS)]” and “CGUUGUGAUGCUUGUGCUCAUACCGGAGAUACCAGUACCAUCACUUACCCUUGGCAGCUCAGUAAAGACAAGUGAUGUUUGUCAC [theeternabot_sameState_KL_Theo_A_38]” are within 1.5-fold of each other in “apparent KD of K4 kissing-loop reporter” value: 637 nM for the first, 805 nM for the second.

Compared with “GCAGGACGAGGAGGAGGAUGAAUUACUGAAGGAGCGCAUAUUUUUGCAGGUAGGUCGCGGUAAACAAGUAUAGUGAUGUUAUAUC [SSArgA.N]”, “AGACCACAAAGUGGUCAGUGUUCGCUGCCGCGAGGACCGGUACGGCCGCCACUCGCGAGUGAUGUUCGCGAGGGCAGCGAACACA [Omei KL Tryp A Exc A v4]” is 4.2-fold lower in “apparent KD of K4 kissing-loop reporter” value: 372 nM for the first, 87.9 nM for the second.

Going from “AUUAAGAUAUGAGUGAUGUUUAUGUCCGAAGGAGCGUGCGAAAGUACAGGUAGGUCGCGGAUGUGAGUGAUGUUUAUGUAAGCGU [KL-XArg-A15 #analogue]” to “AUAGGCAUAGCCCGAGUGAUGUUCGACGAUACCAGCCUCGAUAGAGGCCCUUGGCAGCGUAAAUGAUCAUGAAGCCAAGGAAUUA [whbob_Ex_Theo_A_th70]”, the “apparent KD of K4 kissing-loop reporter” value rises from 97.1 nM to 408 nM (4.2-fold).

“CAGAACUUGUAUACAGGGCAUGCCAGAGAUACCAGUCAAAUGGAAGGCCCUUGGCAGCUCAGGCGAGUGAUGUUCGCAGGCUGAC [Exclusion Theophylline A GF 19]” and “AGACUACUGAUAGGAUAUAACAUCCUAGUCGUAUACCGAAAGGUAUACGAUUUCCUUCUAGUGAUGUUAGAAGGGUCGGUAGUCA [Omei KL FMN B Exc B v11]” are within 1.5-fold of each other in “apparent KD of K4 kissing-loop reporter” value: 116 nM for the first, 89.1 nM for the second.

Compared with “GGAUAGGAGAGAGGAUAUGGGCUAGGCAAGAAUAACUUGUCUAGCAAAUCCAUGAGGAGUGAUGUUCCAGAAGGCUCUCCUAUCG [FmnBX 1 G9+C77]”, “CAAAACGAGUGAUGUUCGGACAACAACGUUAAGGAUAUACUUCUCUGUAGAAGGUAACAGUAUUUAUAUUUCAUCAACGAAAAUG [theeternabot_exclusion_KL_FMN_A_12]” is 1.8-fold higher in “apparent KD of K4 kissing-loop reporter” value: 153 nM for the first, 280 nM for the second.

First: AAAUAUUCGAGUGAUGUUCGAUAAAUUUCAGAGGAUAUGCUUAAAAGCAGAAGGCUGUAUUUCUAUUUGUUAUGAAAUUUUAUAA [JR_ExcFMNA_Sub003]
Second: GGAUAGGACAGAGGAUAUGGACAGUCUACAAAGUAGGCUGAAAAUCCUUGAAUGGAAGUGAUGUUUCCAGAAGGCUGUCCUAUCG [FmnBX 20 - #SwitchBubble #StaticStem #Palindromic]
The “apparent KD of K4 kissing-loop reporter” value of the first is 1.9-fold lower: 87.3 nM for the first, 165 nM for the second.

Compared with “GUUCUCGAAACUCAGUGAUGUUGAGUUGCAGAGGAUAUCCGCACAUGGAGAAGGCUGCAGUAAUUUAAAGACUCAGCGGCGCUCC [Riare]”, “UUUAUGAUGUCGGCCGCCACUGGAUUAAUAUGUGUGUAAUCUAGUUCUGAGUGAUGUUUAGAGUCCAGGACCGGGACAUUUGUUA [#11 K4 Tryptophan B Exclusion]” is 4.5-fold higher in “apparent KD of K4 kissing-loop reporter” value: 115 nM for the first, 522 nM for the second.

same assay, conditions: Eterna round: R107; input ligand: theophylline 20 uM

Compared with “AAUCCUAACGGAGUGAUGUUCCGUAGCGAUACCAGCCAUUGCGAUGGCCCUUGGCAGCGCUAUAAGCAUUGCUAGUAAGGGCCAA [Theo A Ex t7]”, “AAGUGUGUGGCGGCCGCCACUAGAAUCCAGUGAUGUUGGAGUUAUCAGAUAAAUGAUAAUCAACAUAGGACCGGGCCAUAUAGAA [Same State - Tryptophan B (Freestyle 5)]” is 3.9-fold higher in “apparent KD of K4 kissing-loop reporter” value: 163 nM for the first, 630 nM for the second.

Compared with “CCUAUCUCUUACGAUACCAGUCAAUGAUAUUUUAUCAAUGCCCUCACCGAGUGAUGUUCGGACCCUUGGCAGCGUCUGGGAUAGG [pvppimullin]”, “AAUUACCUAGUGAUGUUGGGAAUAAUAUAACGAGGACCGGUACGGCCGCCACUCGAGGUCCUAAUUAAGAACGCGAAAGCGAAGA [Tryptophan A Exclusion; Euphoria Solution]” is 2.8-fold lower in “apparent KD of K4 kissing-loop reporter” value: 190 nM for the first, 66.8 nM for the second.

“UUGGAGUGAUGUUCCAUGUCUUGAGCCGAAGGAGCGCCUUUCUAGGCAGGUAGGUCGCGGCAGAAGGUACCAGUGAUGUUGGAAA [Same State Arginine A GF9]” and “UGCUUUAUCAGAAGGAGCGCGUUAUUCAUAAUAAUAAUCAGUGAUGUUGAUAUAUGAUGAUUGCAGGUAGGUCGCUGAUAUAGCU [KL-XARG-B3]” are within 1.5-fold of each other in “apparent KD of K4 kissing-loop reporter” value: 222 nM for the first, 253 nM for the second.

Compared with “AGAUAGGGCUGAAGGAGCGUCGGAGAAGAGAAGAAGGAAUCCAGUGAUGUUGGAUAAAUCCGACAGGUAGGUCGCAGUUUUAUGA [hbob_SS_Arginine_B_2t138]”, “UAUUUAGUGACGGCCGCCACUAUGGUGAUUUAUUUGUUUGAGUGAUGUUUUGAUGUUUGAUUUUGUAGGACCGGGUUAUGUGUUG [yyycmullin]” is 6.9-fold higher in “apparent KD of K4 kissing-loop reporter” value: 109 nM for the first, 752 nM for the second.

First: AUUAAUUUCAGAGGAUAUGCUUUAUUAUUAUUUUUAAAUAAUAUAAGCAGUGAUGUUGCUUUUUAUGCAGAAGGCUGAUUUAUAA [JR_SSFMNB_Sub016]
Second: CUUAUUUCUCGCUAUGAUGUUAGUUGAGCCAAGGAUAUUAAUGAAUUAAGAAGGUGGGUUUUUAAGUGAUGUUUUGAGACUGGCA [theeternabot_exclusion_KL_FMN_A_27]
The “apparent KD of K4 kissing-loop reporter” value of the first is 1.9-fold lower: 384 nM for the first, 727 nM for the second.

Going from “CCAUCGCUAUUCGAUACCAGCCAGGAGGUCUUUGGCCUCCUAUUGGAGUGAUGUUCCAUAGGCCCUUGGCAGCGAAUAGUGAUGG [Theophylline B K4 16]” to “GCAGGAUAGCGCGGUGCAGUGAUGUUGCACCGAGGACCGGUACGGCCGCCACUCGCUUAGAUAUCGUGUGAUGGGUAUGUCUAGA [theeternabot_exclusion_KL_Trp_A_8]”, the “apparent KD of K4 kissing-loop reporter” value falls from 542 nM to 94 nM (5.8-fold).

“AGUGCACUGUCAGGAUAUAUACAGUGAUGUUGUGUAUGUCAGCAAGUCAAAGACUUGCUAUUCUGUGUAGAAGGGACUGUGUACA [Omei KL FMN B Exc A v1]” and “GUGGCGACGCAAGGAUAUGGGUGCUAGUGAUGUUAGCCUUUGCUCCAUGUCACGUGGUCUGCACACCCAGAAGGUGCGGGAAGAU [theeternabot_exclusion_KL_FMN_B_9]” are within 1.5-fold of each other in “apparent KD of K4 kissing-loop reporter” value: 207 nM for the first, 307 nM for the second.

First: AAGUGAUGUUGUAGUGAUGUUGUGAUGUUGCAGGAUAUAUAGUGAUGUAGAAGGGUAUGUGCAGUGUUGUUGUUUGAGUGUUGAU [twwumullin]
Second: AAGUGAUGUUGUAGUGAUGUUGUGAUGUUGCAGGAUAUAUAGUGAUGUAGAAGGGUAUGUACUUAUUUUUUAUUUGAGUUAUGUU [mmvmmullin]
The “apparent KD of K4 kissing-loop reporter” value of the first is 1.6-fold higher: 68.6 nM for the first, 43.9 nM for the second.

Going from “AAGAGGUAGGCGGCCGCCACUUGUUGUGAACACAUACGAGCCAGUGAUGUUGGUAUUGUGUGCGGAAGGACCGGGCCUACCUGAA [Exclusion - Tryptophan B (Freestyle 21)]” to “GGAGUUACCUGGGAUACCAGUCGGAGUCCCAGAGCUCAGAGUGAUGUUCUGGGAUGUUUCGGCCCUUGGCAGCUCUGGGACUCCC [#2 Exclusion - Theophylline B Attempt #12 (HarryS)]”, the “apparent KD of K4 kissing-loop reporter” value rises from 46 nM to 599 nM (13-fold).

“CGUUGUGAUGCUUGUGCUCAUACCGGAGAUACCAGUACCAUCACUUACCCUUGGCAGCUCAGUAAAGACAAGUGAUGUUUGUCAC [theeternabot_sameState_KL_Theo_A_38]” and “GCAGGACGAGGAGGAGGAUGAAUUACUGAAGGAGCGCAUAUUUUUGCAGGUAGGUCGCGGUAAACAAGUAUAGUGAUGUUAUAUC [SSArgA.N]” are within 1.5-fold of each other in “apparent KD of K4 kissing-loop reporter” value: 560 nM for the first, 459 nM for the second.

“AGACCACAAAGUGGUCAGUGUUCGCUGCCGCGAGGACCGGUACGGCCGCCACUCGCGAGUGAUGUUCGCGAGGGCAGCGAACACA [Omei KL Tryp A Exc A v4]” and “AUUAAGAUAUGAGUGAUGUUUAUGUCCGAAGGAGCGUGCGAAAGUACAGGUAGGUCGCGGAUGUGAGUGAUGUUUAUGUAAGCGU [KL-XArg-A15 #analogue]” are within 1.5-fold of each other in “apparent KD of K4 kissing-loop reporter” value: 86.8 nM for the first, 65 nM for the second.

For “AUAGGCAUAGCCCGAGUGAUGUUCGACGAUACCAGCCUCGAUAGAGGCCCUUGGCAGCGUAAAUGAUCAUGAAGCCAAGGAAUUA [whbob_Ex_Theo_A_th70]”, the “apparent KD of K4 kissing-loop reporter” value was 394 nM.
